# Earlier results in publication PMC7677405.
# Biological target: insulin receptor (Homo sapiens) (UniProt P06213)
# Chain of UniProt P06213 (P06213 763-1382): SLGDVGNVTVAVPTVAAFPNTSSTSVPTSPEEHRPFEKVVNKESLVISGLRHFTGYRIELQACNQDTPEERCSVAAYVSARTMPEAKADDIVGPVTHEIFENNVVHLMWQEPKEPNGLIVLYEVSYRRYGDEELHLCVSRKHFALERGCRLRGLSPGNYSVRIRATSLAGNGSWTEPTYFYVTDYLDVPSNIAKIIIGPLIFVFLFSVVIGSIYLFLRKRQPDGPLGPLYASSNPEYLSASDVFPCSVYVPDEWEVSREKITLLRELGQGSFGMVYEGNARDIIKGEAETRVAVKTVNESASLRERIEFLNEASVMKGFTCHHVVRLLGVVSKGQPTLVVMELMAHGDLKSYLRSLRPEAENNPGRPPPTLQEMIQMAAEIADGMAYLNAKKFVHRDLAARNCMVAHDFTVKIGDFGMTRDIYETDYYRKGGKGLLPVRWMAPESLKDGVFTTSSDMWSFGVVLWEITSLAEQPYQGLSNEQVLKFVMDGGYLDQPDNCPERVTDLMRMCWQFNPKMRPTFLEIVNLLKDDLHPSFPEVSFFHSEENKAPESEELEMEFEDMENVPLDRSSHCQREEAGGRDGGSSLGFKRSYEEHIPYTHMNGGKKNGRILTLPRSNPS
# Chain of insulin (P01308 90-110): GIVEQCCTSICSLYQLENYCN
substance,measurement,value
insulin (from UniProt P01308),Kd,0.028 µM
